According to paper PMC4494967:

How the values were obtained:
[1] = target: USP7 (UniProt Q93009); assay: anti-myc IP, western blot; settings: reference: myc-CCDC6 wild type; sites S359,S413,T427
[2] = target: FBXW7 (UniProt Q969H0); assay: anti-myc IP, anti-HA blot; settings: reference: myc-CCDC6 wild type; sites S359,S413,T427

binding against the reference [1]: stronger
binding against the reference [2]: weaker
Substance: CCDC6 (from UniProt Q16204) triple mutant S359A/S413A/T427A (TM)
